We go through three molecules from US20240026031A1 (University of California, published 2024).

Test [1] addresses T1, RNF43 (UniProt Q68DV7 24-197, limits assumed).
T1 sequence (looked up): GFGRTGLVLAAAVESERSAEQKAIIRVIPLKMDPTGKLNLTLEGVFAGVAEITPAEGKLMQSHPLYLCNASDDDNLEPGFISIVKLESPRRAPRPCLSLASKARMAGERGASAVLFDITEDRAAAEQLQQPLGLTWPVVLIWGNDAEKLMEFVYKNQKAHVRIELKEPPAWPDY
Put plainly: affinity for RNF43; method and format not stated; WT anti-RNF43 A5.

Test [2] addresses T1, RNF43. Put plainly: affinity for RNF43; method and format not stated; S113A mutant of CDR H3.
Test [3] concerns the target T1, RNF43. Put plainly: affinity for RNF43; method and format not stated; F115A mutant of CDR H3.

B1: anti-RNF43 A5 (WT RNF43 binder) (Fab, V domains shown)
VH: EVQLVESGGGLVQPGGSLRLSCAASGFNIYYYSMHWVRQAPGKGLEWVASISPYYSYTSYADSVKGRFTISADTSKNTAYLQMNSLRAEDTAVYYCARYGYYGWDYHRYSAFDYWGQGTLVTVSS
VL: DIQMTQSPSSLSASVGDRVTITCRASQSVGSALAWYQQKPGKAPKLLIYSASSLYSGVPSRFSGSRSGTDFTLTISSLQPEDFATYYCQQAYPITFGQGTKVEIKR
notes: also called WT RNF43 A5; clone anti-RNF43 A5
The molecule B1 yielded a Kd with RNF43 [1] of 0.0125 µM.

B2: anti-RNF43 A5 alanine mutant S113A (CDR H3) (Fab, V domains shown)
VH: EVQLVESGGGLVQPGGSLRLSCAASGFNIYYYSMHWVRQAPGKGLEWVASISPYYSYTSYADSVKGRFTISADTSKNTAYLQMNSLRAEDTAVYYCARYGYYGWDYHRYAAFDYWGQGTLVTVSS
VL: DIQMTQSPSSLSASVGDRVTITCRASQSVGSALAWYQQKPGKAPKLLIYSASSLYSGVPSRFSGSRSGTDFTLTISSLQPEDFATYYCQQAYPITFGQGTKVEIKR
notes: also called 40 nM
Turning to B2, the affinity in the test with RNF43 [2], expressed as Kd, was 0.04 µM.

B3: anti-RNF43 A5 alanine mutant F115A (CDR H3) (Fab, V domains shown)
VH: EVQLVESGGGLVQPGGSLRLSCAASGFNIYYYSMHWVRQAPGKGLEWVASISPYYSYTSYADSVKGRFTISADTSKNTAYLQMNSLRAEDTAVYYCARYGYYGWDYHRYSAADYWGQGTLVTVSS
VL: DIQMTQSPSSLSASVGDRVTITCRASQSVGSALAWYQQKPGKAPKLLIYSASSLYSGVPSRFSGSRSGTDFTLTISSLQPEDFATYYCQQAYPITFGQGTKVEIKR
B3: in the test with RNF43 [3], the Kd was 0.125 µM.
